Source: IntAct's records for PubMed 16401726

B1: UV excision repair protein RAD23 (Saccharomyces cerevisiae), P32628 (parent)
chain: MVSLTFKNFKKEKVPLDLEPSNTILETKTKLAQSISCEESQIKLIYSGKVLQDSKTVSECGLKDGDQVVFMVSQKKSTKTKVTEPPIAPESATTPGRENSTEASPSTDASAAPAATAPEGSQPQEEQTATTERTESASTPGFVVGTERNETIERIMEMGYQREEVERALRAAFNNPDRAVEYLLMGIPENLRQPEPQQQTAAAAEQPSTAATTAEQPAEDDLFAQAAQGGNASSGALGTTGGATDAAQGGPPGSIGLTVEDLLSLRQVVSGNPEALAPLLENISARYPQLREHIMANPEVFVSMLLEAVGDNMQDVMEGADDMVEGEDIEVTGEAAAAGLGQGEGEGSFQVDYTPEDDQAISRLCELGFERDLVIQVYFACDKNEEAAANILFSDHAD
partner: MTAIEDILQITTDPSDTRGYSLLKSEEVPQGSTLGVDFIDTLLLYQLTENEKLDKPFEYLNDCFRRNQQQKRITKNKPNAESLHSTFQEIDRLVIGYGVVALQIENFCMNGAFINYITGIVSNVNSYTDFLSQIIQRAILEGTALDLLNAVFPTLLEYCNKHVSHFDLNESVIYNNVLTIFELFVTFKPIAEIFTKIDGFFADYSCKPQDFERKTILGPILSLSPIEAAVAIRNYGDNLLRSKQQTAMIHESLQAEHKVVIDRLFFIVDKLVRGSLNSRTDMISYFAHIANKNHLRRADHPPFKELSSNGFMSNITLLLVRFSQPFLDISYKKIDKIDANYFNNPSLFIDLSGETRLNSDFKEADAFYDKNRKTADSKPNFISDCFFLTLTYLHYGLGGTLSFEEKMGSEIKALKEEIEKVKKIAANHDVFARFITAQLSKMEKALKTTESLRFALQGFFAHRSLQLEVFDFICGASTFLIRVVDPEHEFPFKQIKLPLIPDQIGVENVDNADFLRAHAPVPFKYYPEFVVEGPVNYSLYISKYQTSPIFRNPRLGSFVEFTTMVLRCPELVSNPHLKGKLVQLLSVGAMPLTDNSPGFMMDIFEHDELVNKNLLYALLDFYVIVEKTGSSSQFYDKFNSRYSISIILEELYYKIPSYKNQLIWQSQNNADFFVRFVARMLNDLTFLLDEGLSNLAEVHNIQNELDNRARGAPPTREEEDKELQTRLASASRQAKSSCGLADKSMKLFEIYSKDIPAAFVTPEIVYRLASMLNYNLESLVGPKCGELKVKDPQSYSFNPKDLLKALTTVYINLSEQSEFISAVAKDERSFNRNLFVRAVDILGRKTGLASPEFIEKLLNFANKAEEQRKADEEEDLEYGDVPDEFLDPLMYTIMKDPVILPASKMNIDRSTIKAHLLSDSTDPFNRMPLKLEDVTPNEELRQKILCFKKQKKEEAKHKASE
B2: UV excision repair protein RAD23 (Saccharomyces cerevisiae), P32628 (parent)
chain: B1 chain
partner: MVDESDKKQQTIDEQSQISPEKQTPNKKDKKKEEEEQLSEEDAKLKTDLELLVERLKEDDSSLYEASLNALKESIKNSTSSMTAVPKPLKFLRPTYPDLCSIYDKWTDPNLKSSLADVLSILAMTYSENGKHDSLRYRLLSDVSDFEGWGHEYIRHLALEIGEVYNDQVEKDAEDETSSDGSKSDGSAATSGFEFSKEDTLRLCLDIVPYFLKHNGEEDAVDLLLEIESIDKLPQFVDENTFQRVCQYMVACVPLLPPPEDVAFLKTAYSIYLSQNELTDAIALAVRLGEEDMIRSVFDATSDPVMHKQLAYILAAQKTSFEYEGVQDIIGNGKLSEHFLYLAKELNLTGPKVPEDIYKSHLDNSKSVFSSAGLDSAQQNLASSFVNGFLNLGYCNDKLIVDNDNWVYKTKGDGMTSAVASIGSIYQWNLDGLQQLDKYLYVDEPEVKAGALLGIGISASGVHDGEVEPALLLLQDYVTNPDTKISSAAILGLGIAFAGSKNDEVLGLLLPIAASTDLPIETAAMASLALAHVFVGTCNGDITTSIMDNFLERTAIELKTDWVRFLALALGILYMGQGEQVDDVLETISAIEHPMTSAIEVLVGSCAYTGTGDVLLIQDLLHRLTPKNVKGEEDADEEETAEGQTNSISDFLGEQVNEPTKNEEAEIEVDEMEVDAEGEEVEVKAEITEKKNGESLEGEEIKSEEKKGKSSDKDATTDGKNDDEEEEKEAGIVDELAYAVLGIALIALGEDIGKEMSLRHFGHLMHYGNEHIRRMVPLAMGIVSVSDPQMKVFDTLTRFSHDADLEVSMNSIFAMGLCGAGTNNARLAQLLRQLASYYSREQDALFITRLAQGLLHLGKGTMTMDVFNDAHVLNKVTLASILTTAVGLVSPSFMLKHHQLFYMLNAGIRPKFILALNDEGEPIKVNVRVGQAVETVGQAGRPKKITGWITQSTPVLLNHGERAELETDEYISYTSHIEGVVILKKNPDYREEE
B3: "Peptide-N(4)-(N-acetyl-beta-glucosaminyl)asparagine amidase" (Saccharomyces cerevisiae), Q02890 (parent)
chain: MGEVYEKNNIDFDSIAKMLLIKYKDFILSKFKKAAPVENIRFQNLVHTNQFAQGVLGQSQHLCTVYDNPSWHSIVLETLDLDLIYKNVDKEFAKDGHAEGENIYTDYLVKELLRYFKQDFFKWCNKPDCNHCGQNTSENMTPLGSQGPNGEESKFNCGTVEIYKCNRCGNITRFPRYNDPIKLLETRKGRCGEWCNLFTLILKSFGLDVRYVWNREDHVWCEYFSNFLNRWVHVDSCEQSFDQPYIYSINWNKKMSYCIAFGKDGVVDVSKRYILQNELPRDQIKEEDLKFLCQFITKRLRYSLNDDEIYQLACRDEQEQIELIRGKTQETKSESVSAASKSSNRGRESGSADWKAQRGEDGK
partner: B1 chain
B4: UV excision repair protein RAD23 (Saccharomyces cerevisiae), P32628 (parent)
chain: B1 chain
partner: B3 chain
B5: UV excision repair protein RAD23 (Saccharomyces cerevisiae), P32628 (parent)
chain: B1 chain
partner: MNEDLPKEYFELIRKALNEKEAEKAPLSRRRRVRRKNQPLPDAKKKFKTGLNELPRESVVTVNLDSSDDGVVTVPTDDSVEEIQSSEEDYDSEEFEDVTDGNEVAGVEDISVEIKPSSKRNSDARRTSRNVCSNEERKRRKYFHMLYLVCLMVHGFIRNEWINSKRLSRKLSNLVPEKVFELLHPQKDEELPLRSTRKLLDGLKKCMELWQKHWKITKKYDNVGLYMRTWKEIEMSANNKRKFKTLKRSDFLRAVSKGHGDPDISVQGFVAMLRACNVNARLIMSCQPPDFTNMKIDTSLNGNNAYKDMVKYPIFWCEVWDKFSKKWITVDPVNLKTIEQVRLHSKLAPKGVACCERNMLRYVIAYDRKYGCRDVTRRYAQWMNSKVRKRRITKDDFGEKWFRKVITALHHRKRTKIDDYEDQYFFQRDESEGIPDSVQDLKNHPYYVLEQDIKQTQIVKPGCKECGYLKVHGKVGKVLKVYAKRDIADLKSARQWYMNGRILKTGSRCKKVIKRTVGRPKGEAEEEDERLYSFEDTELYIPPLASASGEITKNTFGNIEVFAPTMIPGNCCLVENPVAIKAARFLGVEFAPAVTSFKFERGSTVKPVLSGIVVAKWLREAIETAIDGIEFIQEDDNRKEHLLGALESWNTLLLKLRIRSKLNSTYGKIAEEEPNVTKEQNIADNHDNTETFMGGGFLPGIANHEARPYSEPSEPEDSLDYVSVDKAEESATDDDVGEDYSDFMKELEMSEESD

Variants of: B1
Conditions: with ufd2_yeast UFD2, P54860

| effect of a mutation on the interaction | Variant |
| --- | --- |
| with no effect | MVSLTFKNFKKEKVPLDLEPSNTILETKTKLAQSISCEESQIKLIYSGKVLQDSKTVSECGLKDGDQVVFMVSQKKSTKTKVTEPPIAPESATTPGRENSTEASPSTDASAAPAATAPEGSQPQEEQTATTERTESASTPGFVVGTERNETIERIMEMGYQREEVERALRAAFNNPDRAVEYLLMGIPENLRQPEPQQQTAAAAEQPSTAATTAEQPAEDDLFAQAAQGGNASSGALGTTGGATDAAQGGPPGSIGLTVEDLLSLRQVVSGNPEAQAPLLENISARYPQLREHIMANPEVFVSMLLEAVGDNMQDVMEGADDMVEGEDIEVTGEAAAAGLGQGEGEGSFQVDYTPEDDQAISRLCELGFERDLVIQVYFACDKNEEAAANILFSDHAD [L276Q] |

Variants of: B2
Conditions: with rpn1_yeast RPN1, P38764

| effect of a mutation on the interaction | Variant |
| --- | --- |
| with no effect | MVSLTFKNFKKEKVPLDLEPSNTILETKTKLAQSISCEESQIKLIYSGKVLQDSKTVSECGLKDGDQVVFMVSQKKSTKTKVTEPPIAPESATTPGRENSTEASPSTDASAAPAATAPEGSQPQEEQTATTERTESASTPGFVVGTERNETIERIMEMGYQREEVERALRAAFNNPDRAVEYLLMGIPENLRQPEPQQQTAAAAEQPSTAATTAEQPAEDDLFAQAAQGGNASSGALGTTGGATDAAQGGPPGSIGLTVEDLLSLRQVVSGNPEAQAPLLENISARYPQLREHIMANPEVFVSMLLEAVGDNMQDVMEGADDMVEGEDIEVTGEAAAAGLGQGEGEGSFQVDYTPEDDQAISRLCELGFERDLVIQVYFACDKNEEAAANILFSDHAD [L276Q] |
| with no effect | MVSLTFKNFKKEKVPLDLEPSNTILETKTKLAQSISCEESQIKLIYSGKVLQDSKTVSECGLKDGDQVVFMVSQKKSTKTKVTEPPIAPESATTPGRENSTEASPSTDASAAPAATAPEGSQPQEEQTATTERTESASTPGFVVGTERNETIERIMEMGYQREEVERALRAAFNNPDRAVEYALMGIPENLRQPEPQQQTAAAAEQPSTAATTAEQPAEDDLFAQAAQGGNASSGALGTTGGATDAAQGGPPGSIGLTVEDLLSLRQVVSGNPEALAPLLENISARYPQLREHIMANPEVFVSMLLEAVGDNMQDVMEGADDMVEGEDIEVTGEAAAAGLGQGEGEGSFQVDYTPEDDQAISRLCELGFERDLVIQVYFACDKNEEAAANIAFSDHAD [L183A;L392A] |

Variants of: B3
Conditions: with rad23_yeast RAD23, P32628

| effect of a mutation on the interaction | Variant |
| --- | --- |
| with no effect | MGEVYEKNNIDFDSIAKMLLIKYKDFILSKFKKAAPVENIRFQNLVHTNQFAQGVLGQSQHLCTVYDNPSWHSIVLETLDLDLIYKNVDKEFAKDGHAEGENIYTDYLVKELLRYFKQDFFKWCNKPDCNHCGQNTSENMTPLGSQGPNGEESKFNCGTVEIYKCNRCGNITRFPRYNDPIKLLETRKGRCGEWCNLFTLILKSFGLDVRYVWNREDYVWCEYFSNFLNRWVHVDSCEQSFDQPYIYSINWNKKMSYCIAFGKDGVVDVSKRYILQNELPRDQIKEEDLKFLCQFITKRLRYSLNDDEIYQLACRDEQEQIELIRGKTQETKSESVSAASKSSNRGRESGSADWKAQRGEDGK [H218Y] |

Variants of: B4
Conditions: with png1_yeast PNG1, Q02890

| effect of a mutation on the interaction | Variant |
| --- | --- |
| with no effect | MVSLTFKNFKKEKVPLDLEPSNTILETKTKLAQSISCEESQIKLIYSGKVLQDSKTVSECGLKDGDQVVFMVSQKKSTKTKVTEPPIAPESATTPGRENSTEASPSTDASAAPAATAPEGSQPQEEQTATTERTESASTPGFVVGTERNETIERIMEMGYQREEVERALRAAFNNPDRAVEYALMGIPENLRQPEPQQQTAAAAEQPSTAATTAEQPAEDDLFAQAAQGGNASSGALGTTGGATDAAQGGPPGSIGLTVEDLLSLRQVVSGNPEALAPLLENISARYPQLREHIMANPEVFVSMLLEAVGDNMQDVMEGADDMVEGEDIEVTGEAAAAGLGQGEGEGSFQVDYTPEDDQAISRLCELGFERDLVIQVYFACDKNEEAAANIAFSDHAD [L183A;L392A] |
| disrupting interaction strength | MVSLTFKNFKKEKVPLDLEPSNTILETKTKLAQSISCEESQIKLIYSGKVLQDSKTVSECGLKDGDQVVFMVSQKKSTKTKVTEPPIAPESATTPGRENSTEASPSTDASAAPAATAPEGSQPQEEQTATTERTESASTPGFVVGTERNETIERIMEMGYQREEVERALRAAFNNPDRAVEYLLMGIPENLRQPEPQQQTAAAAEQPSTAATTAEQPAEDDLFAQAAQGGNASSGALGTTGGATDAAQGGPPGSIGLTVEDLLSLRQVVSGNPEAQAPLLENISARYPQLREHIMANPEVFVSMLLEAVGDNMQDVMEGADDMVEGEDIEVTGEAAAAGLGQGEGEGSFQVDYTPEDDQAISRLCELGFERDLVIQVYFACDKNEEAAANILFSDHAD [L276Q] |

Variants of: B5
Conditions: with rad4_yeast RAD4, P14736

| effect of a mutation on the interaction | Variant |
| --- | --- |
| with no effect | MVSLTFKNFKKEKVPLDLEPSNTILETKTKLAQSISCEESQIKLIYSGKVLQDSKTVSECGLKDGDQVVFMVSQKKSTKTKVTEPPIAPESATTPGRENSTEASPSTDASAAPAATAPEGSQPQEEQTATTERTESASTPGFVVGTERNETIERIMEMGYQREEVERALRAAFNNPDRAVEYLLMGIPENLRQPEPQQQTAAAAEQPSTAATTAEQPAEDDLFAQAAQGGNASSGALGTTGGATDAAQGGPPGSIGLTVEDLLSLRQVVSGNPEAQAPLLENISARYPQLREHIMANPEVFVSMLLEAVGDNMQDVMEGADDMVEGEDIEVTGEAAAAGLGQGEGEGSFQVDYTPEDDQAISRLCELGFERDLVIQVYFACDKNEEAAANILFSDHAD [L276Q] |
